Experimental data as given in the supplement of paper PMC12636428.

tested on: Saccharomyces cerevisiae; test: transcriptional activation domain activity (GFP:mCherry ratio, weighted mean of sorted bins, harmonized to initial dataset scale) (arbitrary fluorescence ratio units); higher = stronger transcriptional activation; settings: beta-estradiol 1 µM; induction time 4 h
How it was run: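 Sorting into 8 bins by GFP:mCherry ratio followed a 4-hour hold at 30 °C after cultures were diluted 1:5 into SC with 1 uM beta-estradiol. The yeast diploids carried a GFP reporter and had barcoded protein tiles, fused to an estradiol-inducible synthetic transcription factor, integrated at URA3. Barcodes were then sequenced, and tiles with under 50 reads were removed. Activation activity is the read-weighted mean of bin median fluorescence, averaged across barcodes and linearly mapped onto the initial dataset scale.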

Row | Sequence | transcriptional activation domain activity
1 | YMEIVCEKQLLVVSKVNRGWLYMAITQADLVYWATLSLASHYRDSKSVALTYF | 62500
2 | RKTKFPILLSGDGYIHFGFLYAVIPNLNIMAMSYVAVINNVRVVAYLCLWMSL | 50800
3 | YFYGLERRHVTCSQLAYYLCDKALTPMFCGGRVGNDCFDPWGRLLTYWCFLPL | 77300
4 | KTIWRDVKEGGECSVEEMCLSYYRSEGWKGYHSEGGILKTLFAYLFYDIMFLY | 65700
5 | DLDILLAKLLEELEDSLQALKRLVVSAFLRFLTGVLYEEFMEAIRPNPHMDNE | 58200
6 | SPTRAYVGANTNSKNASFNDADLLSSSYWIKAYNDHLFSVSESDETSPMNSEL | 38800
7 | VVLSVLCSLLNTTLKYNPASWRVPYDHVVFKDSKQILVTYCLQLLLVLILYPI | 44500
8 | MLLLPYAVFCIISFFHSFLFFLLLGGWLGCIFYLRVVHMHWLVRWFVWLVHGG | 65300
9 | PDVLRKGAKFFCDETVLVKLQIVTLAAKLLVLSPNNLTLILLTKYVFGLARYD | 63000
10 | IKPEIMGLLEIHRSIAQDIGVSLLTELINPNVSIGKMLRNCITVFTLINTLRH | 77500
11 | GDKNKRKRGDSAASEAQAGQQEAAKEVQQKKKRVRSKGKAAAPPVAQASAGAS | 45300
12 | TEQEAIQKKRKKRKIREDNGISTVLFALEEVCAIILHRMQHRNGVPHVTTLVF | 52100
13 | FLWYMLFLPLIIPRLSCSWLRLLCVQSGIFGEPIFFRLWICSIIYVVGHCWVL | 31200
14 | SDDVNSTMEDDDTPIEKHWLNIDQPLGSEKETTTLSILWMLLLLQLSHICTDP | 76600
15 | NSVPGSPETPTSSSLDGSRETGYLRVRVVSAKDLAARMRSRTATCSASAGSPL | 42100
16 | KATEYCLYFFGLGPALFKSLLPDKYWQHYCMLVHAVRILVQRRITQTQMLEAY | 49300
17 | KQTAAQDSDEEGGGGKLKSKKEKEKEKKEREKQRKKEQAAKKKTAAPAPAKPE | 24400
18 | PYLFIIRLLRLYKLPLIFMTSPVYIKTLKMMQNALGIGQTVAVIFPLTFWFCI | 27600
19 | DYCSFNSFPPSHFMSLYKNLGSFFLLSSFPPPPFFFVLLYLPASCLCFFCLFF | 54500
20 | MMSMFWGWHGQRNGVFSGVLGFGILLVTWFFFFFKFSPHILLIISVYGHFGFF | 81500
21 | AQPPAIEGKKSKKGEAPAAEVQKKEKKEKKPAEEGASKKGGSAKAAAAPAEDA | 9790

Row | Sequence | transcriptional activation domain activity
22 | MSSSAASGPMGESSKRKAGSEAVAGSSSSSSISRDGKKAKLKPQDEATATGAA | 31400
23 | MVFGHWCVSRLSHNSQILFLLTMLSFPVCENFFGFICNFIILLFARRTLFFVL | 59500
24 | AMERLRAAEKTAKEKRLCLYANAPAANSSSKGTTAATSRGGAFEATVVRVWSG | 61100
25 | MGSGFCNGVFFYYLFFFFISLCVILSSFLLFFFSLPLFLGGLFFSTFLFLDAR | 58900
26 | LVWLDNWPAGLKLNTELSRFLCLCFMSLTDIWGNLLAPYLPLILRIIGIMGRT | 57200
27 | LQKTVNLKNIMKVSDPYVPTRNTFNYDVKISNDFFDNGDNLYGNDEEVLFYED | 61500
28 | CVWVYTEIFPEFVWLLIFKLLKSMPEMTRRTGIVVIRSLVSCGIQIGDTFTHK | 50600
29 | GNESDDESTEEEKEVKRKKKKKVAKKLPKKKAKKAAVKAKSKKSKKADSSDES | 31000
30 | SFTLYTIGICGLCDQFGLFCWVHMSLLIIVLSSHFIVNNILEGLIWFWVPASL | 31400
31 | PRFLMYCKLGICQLVILRLFTSTFTIVLEMMGLFCPESMSWRFGHFWAVLFNF | 63600
32 | ACAVLLSVVDGLTPLSIICASCSTTGAYWFCCFSMRFFVFIDLLGTLLLYLII | 74900
33 | GGGGGSSRKRARGGESEDEAAGARANGVGNGPSNGKGKEKGKEVVDDGVAVGS | 55900
34 | GSVKKKLASSSRTGQACDRCKVRKIRCDPRPEGCSPCAQNRTPCKTTDRITGR | 41900
35 | MDILDIFFLFYSLLVSFLFFSLLIPPLFLSSFISISFYFFDGVLCVLLGFFFR | 61500
36 | IKFGVPVALIVIIAAVVGGVLGSRASKNSSASSSAAGDSSSPSGEAAASGAAV | 48300
37 | GEAGAEQGEHGARRARTRGAGCVRGRGREVGEGAGARRRVCGRRCEREARAHN | 23400
38 | VLLYTGLLKFFNLGVLTATLVEVCKRPWRIRMANGRVDRMKYFNLVFGIVWEC | 58700
39 | VSLLTVIVPIGITCRMVIWICALGMVISSLCVDTILLNKAYKFSFIYIVVRHT | 55300
40 | MISWLLRFFWLPGGLFFIWCFFSVPFFALRFCSCRHSFFTTFFLCFFYFYFVT | 67100
41 | QASPEAAKAEGEKASPEAAKAEGEAQPAEGQKEGEAAKAEGEAAAAEAGAGAG | 27600
42 | ADASKWWLLGDSFEADVLTFVSLFQFVNSALIFNYGYIFRQAWYRNYLLVSVW | 56700
